Experimental findings from article PMC6509880 are described below.

The assay concerns the target apo-CrHydA1 ([4Fe4S]-CrHydA1, Chlamydomonas reinhardtii [FeFe] hydrogenase HydA1 lacking the [2Fe] subsite) (Chlamydomonas reinhardtii).

In turn, “[2Fe]^adt-CaHydF (semi-synthetic HydF from Clostridium acetobutylicum loaded with [Fe2(adt)(CO)4(CN)2]^2-) (natural protein)” had an H2 evolution (methyl viologen assay, GC) of 0.04 uM apo-CrHydA1 after 60 min at 37 °C with 0.04-1.2 uM [2Fe]^adt-CaHydF; excess of HydF needed for complete activation of 10 fold excess.
